The values below come from patent publication US20190112365A1 (EISAI R AND D MANAGEMENT, published 2019).

Positions count from the first letter of the chain named. Values joined by “and” are separate entries in the source; they are usually repeats but may differ in a detail not shown here. Equal values may be shown once. Read-outs that look alike come from different tables or passages of the source.

The target in assay [1] is T1, Human Tau 2N4R, wild type, recombinant full length (human, UniProt P10636 2-758).
T1 construct: Full length 2N4R isoform; monomer in SPR and ELISA; heparin-induced aggregates or seeds in the functional assays; also called Tau441; Tau-441
T1 sequence (P10636 other isoform, or with tags, fused parts or gaps limits assumed): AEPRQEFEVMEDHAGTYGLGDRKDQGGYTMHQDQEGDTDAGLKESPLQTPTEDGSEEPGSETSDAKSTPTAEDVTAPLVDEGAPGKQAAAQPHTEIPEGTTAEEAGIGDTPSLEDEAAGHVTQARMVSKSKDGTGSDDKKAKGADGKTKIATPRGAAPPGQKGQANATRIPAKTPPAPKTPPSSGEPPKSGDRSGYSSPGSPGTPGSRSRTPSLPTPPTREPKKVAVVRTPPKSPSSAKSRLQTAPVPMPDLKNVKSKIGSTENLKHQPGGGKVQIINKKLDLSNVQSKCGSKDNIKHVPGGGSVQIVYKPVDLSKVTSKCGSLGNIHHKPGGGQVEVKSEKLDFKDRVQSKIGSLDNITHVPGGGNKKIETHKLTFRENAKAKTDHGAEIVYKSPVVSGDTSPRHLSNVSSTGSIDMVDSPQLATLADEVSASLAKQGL
Briefly: direct ELISA on coated 2N4R Tau. For orientation: ELISA stands for enzyme-linked immunosorbent assay.

Assay [2] concerns the target T1, Human Tau 2N4R, wild type, recombinant …. Briefly: SPR BIAcore, anti-human capture, monomeric Tau, 1:1 Langmuir. The method, then: All experiments were performed using a BIAcore™ T-100 instrument (GE Healthcare). 10 μL anti-human IgG (monoclonal mouse anti-human Fc) from human antibody capture kit (GE Healthcare) was diluted to 25 μL/mL in 200 μL final immobilization buffer (10 mM sodium acetate, pH 5.0). The flow rate was set to 5 μL/min, flowpath 1. Fifty μL N-hydroxysuccinamide (NETS) and 50 μL 1-ethyl-3-(3-dimethylaminopropyl) carbidiimide (EDC) were mixed and injected for 420 sec to activate the CM5 chip surface. The diluted antibody was injected for 360 seconds followed by 1 M ethanolamine for 420 seconds. The flowpath was then switched to flowpath 2. A new EDC/NHS mixture was prepared and the procedure was repeated for flow cell 2. The surface was conditioned by 2 injections of 30 sec using flowpath 1, 2 at 30 μL/min of 3M MgCl₂. For the anti-mouse surface, 10 μL anti-mouse IgG (polyclonal rabbit anti-mouse IgG) from mouse antibody capture kit (GE Healthcare) was diluted to 30 μL/mL in 324 μL final immobilization buffer (10 mM sodium acetate, pH 5.0). The flow rate was set to 5 μL/min, flowpath 3. Fifty μL NHS and 50 μL EDC were mixed and injected for 420 sec to activate the chip surface. The diluted antibody was injected for 420 sec. 1 M ethanolamine was injected for 420 sec. Flow path was switched to flowpath 4. A new EDC/NHS mixture was prepared and the procedure was repeated for flow cell 4. The surface was conditioned by 2 injections of 30 sec using flowpath 3, 4 at 30 μL/min of 10 mM glycine, pH 1.7.
Tau binding for humanized mAbs was analyzed by BIAcore™ in two different formats. The first format was performed as above, i.e. mAbs were captured with an immobilized species-specific anti-Fc antibody. […] In the second format, biotinylated mAbs were captured on a streptavidin-coated chip. This latter format allowed direct comparison of Tau binding affinity between humanized and the parental mouse antibody since the capture method was identical.
The final humanized mAbs were analyzed by BIAcore™ to determine the kₐ, kd, and KD for binding to Tau as above (Table 10).
In general terms: In SPR one partner is held on a chip, and binding of the other changes the refractive index at the surface.

Assay [3] has the same target. Briefly: SPR BIAcore, biotinylated mAb on streptavidin (CAP) chip, single cycle, 1:1 Langmuir. As to the method:
(§1) 400 μg of each antibody was diluted to 2 mg/mL and buffer-exchanged into 0.1 M sodium bicarbonate, pH 8.3 using 0.5 mL Zeba™ 40 kDa MWCO desalting columns (Thermo). NHS-PEG4-biotin, prepared immediately before use by dissolving in water to a 20 mM final stock concentration, was added to antibodies at a 5:1 molar ratio (biotin:MAb) and conjugated for 1 hr at room temperature. Excess biotin was removed by two sequential buffer exchanges into 1×DPBS using 0.5 mL Zeba™ 40 kDa MWCO desalting columns. For the BIAcore™ assay, antibodies were diluted to 2 μg/mL in PBS-P+/0.2% BSA (the same preparation used for the running buffer), centrifuged at 14,000 g for 5 min at room temperature, and the supernatant transferred to a new tube. Injection time was subsequently determined for each antibody to achieve a capture level of ˜225 RU.
(§2) Biotinylated humanized and mouse mAbs were captured on a streptavidin-coated chip and kₐ, kd, and KD were determined for binding to Tau (Table 11). […] The affinity of 7G6-HCzu8-LCzu6, 7G6-HCzu24-LCzu15, 7G6-HCzu24-LCzu18, 7G6-HCzu25-LCzu15, and 7G6-HCzu25-LCzu18 were all similar.

Assay [4] has the same target. Briefly: SPR, streptavidin capture; against 7G6-HCzu24 and 7G6-HCzu25 mAbs. As to the method:
as §1, §2

In assay [5] the target is T2, HVPGG site of Tau (15-mer array peptides containing HVPGG) (human).
T2 peptide: HVPGG
Briefly: peptide microarray; HVPGG site of the second repeat region against HKPGG (repeat region 3). The method, then:
(§3) The diluted antibody was incubated on the chip for 16 hours at 4° C. with shaking at 140 rpm. Primary antibody was removed and the chip was washed in PBS (pH 7.4)/0.05% Tween 20. Wash buffer was removed and goat anti-mouse IgG (H+L) DyLight™680 (1:5000) and an anti-HA tag DyLight™ 800 (1:2000) in the same buffer as the primary antibody was then incubated for 45 minutes at room temperature on the chip. Detection antibody was removed and the chip was washed once again as previously. Fluorescence images were acquired on the LI-COR Odyssey™ Imaging System and the microarray data was finally analyzed using the PepSlide™ Analyser software.

The target of assay [6] is T2, HVPGG site of Tau (15-mer array …). The assay can be described thus: peptide microarray; HVPGG site of the second repeat region against HQPGG (repeat region 1). As to the method: as §3
The target is the same in assay [7]. Briefly: peptide microarray; HVPGG site of the fourth repeat region against HQPGG (repeat region 1). As to the method: as §3
The target is the same in assay [8]. The assay can be described thus: peptide microarray; HVPGG site of the fourth repeat region against HKPGG (repeat region 3). The method, then:
as §3

The target in assay [9] is T1, Human Tau 2N4R, wild type, recombinant …. Briefly: SPR, streptavidin capture; against ms7G6. As to the method:
as §1, §2

Assay [10] shares this target. Briefly: SPR BIAcore, anti-human Fc capture, multi-cycle, 1:1 Langmuir, average of flow cells. The method, then:
A 0 nM Tau protein solution was prepared by adding 3 mL Assay Running Buffer to labeled 5 mL tube. Analyte dilutions were transferred to labeled 4 mL plastic vials and capped with type 5 caps, vortexed briefly to remove any air bubbles adhered to tube walls or bottom, and placed in Sample and Reagent Rack 1. For chip conditioning analyte sample, 5 μL of 1 μM Tau protein solution supernatant was removed and diluted to 500 μL in Assay Buffer in a 7 mm plastic vial, capped, vortexed briefly to dislodge adhered air bubbles, and placed in Sample and Reagent Rack 1. Humanized antibodies were captured on flow cells 2, 3, and 4 sequentially at a flow rate of 10 μL/min for a contact time of 36 sec. Dilutions of Tau protein were injected over all 4 flow cells at a flow rate of 30 μL/min for a contact time of 300 sec. Dissociation was followed for 1800 sec. Following each cycle, the surface was regenerated by two sequential injections of 30 sec at 30 μL/min of 3 M MgCl₂ over all four flow cells. After the run, kinetic data fitting was performed using a 1:1 Langmuir model.
The affinity of recombinant human wild-type 2N4R Tau protein to 7G6-HCzu25LCzu18 antibody was determined using an antibody-capture format assay. Following capture of 7G6-HCzu25LCzu18 antibody, human Tau protein was injected over the ligand surface for 300 sec, followed by observation and measurement of dissociation for 1800 sec. After each antibody capture, Tau protein binding, and dissociation cycle, the chip surface was regenerated to the anti-human antibody capture surface using 3M MgCl₂, as required by the manufacturer. Tau protein was analyzed in a concentration range from 100 nM to 0.046 nM (3-fold diluted). The assay was performed in multi-cycle mode, such that a dissociation was performed for each tau protein injection. Each ligand was analyzed on all three flow cells (fc2, fc3, and fc4) in triplicate, in order to eliminate any flow cell-specific effects.
Binding data was double-referenced, meaning referenced to both fc1 with no ligand bound and to buffer analyte injections (0 nM Tau protein). […]

Assay [11] has the same target. The assay can be described thus: direct ELISA on coated 2N4R Tau. As to the method:
To test direct binding to Tau, 2N4R Tau was coated on 96-well plates and various concentrations of humanized mAbs were added to the wells. MAbs bound to Tau were detected with either an HRP-conjugated anti-mouse antibody (mouse [ms]7G6) or anti-human antibody (remaining samples). Samples were incubated for 1 h at room temperature in 96-well plates coated with 2N4R Tau. Following washing, HRP-conjugated anti-mouse or anti-human detection antibodies were added to the wells. The anti-mouse antibody was used to detect ms7G6. The amount of HRP activity in each well was measured by QuantaBlu fluorescent substrate and the RFUs were detected by a SpectraMax M5 plate reader.
Tau binding was analyzed by a direct ELISA as above. Samples were incubated for 1 hour at room temperature in 96-well plates coated with wild-type 2N4R Tau. After a wash step, HRP-conjugated anti-mouse or anti-human detection antibodies were added to the wells. The anti-mouse antibody was used to detect ms7G6. The amount of HRP activity in each well was measured by QuantaBlu fluorescent substrate and the RFUs were detected by a SpectraMax M5 plate reader. […] Therefore, Vκ Glu34 was critical for antigen binding.
The source holds these as a separate data set.

For assay [12] the target is unchanged. The assay can be described thus: SPR, streptavidin capture; against 7G6-HCzu8-LCzu6. As to the method: as §1, §2

B1: 7G6-HCzu12-LCzu17 (antibody, human IgG1, kappa, V domains shown)
VH: EVQLLESGGGLVQPGGSLRLSCAASGYTFTTYWITWVRQAPGKGLEWVGDIYPGSSICNYNEKFKSRFTISVDNSKSTAYLQMNSLRAEDTAVYYCAREDGYDAWFAYWGQGTLVTVSS
VL: DVQMTQSPSSLSASVGDRVTITCRSSQSIVHSNGNTYLNWYQQKPGKAPKLLISKVSNRFSGVPSRFSGSGSGTDFTLTISSLQPEDFATYYCFQGSHVPFTFGQGTKLEIKR
notes: humanized, human IgG1 kappa; also called 7G6-LCzu17
In the case of B1, the binding result in [1] is given as “no binding”.

B2: 7G6-HCzu23-LCzu15 (antibody, human IgG1, kappa)
heavy: not shown
light: DVQMTQSPSSLSASVGDRVTITCRSSQSILHSNGNTYLEWYQQKPGKAPKLLISKVSNRFSGVPSRFSGSGSGTDFTLTISSLQPEDFATYYCFQGSHVPFTFGQGTKLEIKRTVAAPSVFIFPPSDEQLKSGTASVVCLLNNFYPREAKVQWKVDNALQSGNSQESVTEQDSKDSTYSLSSTLTLSKADYEKHKVYACEVTHQGLSSPVTKSFNRGEC
notes: humanized, human IgG1 kappa
Regarding B2, in [2], the equilibrium dissociation constant (Kd) turned out to be 0.25 nM, the koff was 0.00039 s⁻¹ and the on-rate constant (kon) came out at 1.61e+06 M⁻¹ s⁻¹. Moreover, in assay [3], the Kd was 0.152 nM, the off-rate constant (koff) was 0.000332 s⁻¹ and the on-rate (kon) stood at 2.18e+06 M⁻¹ s⁻¹. In [4], the “fold drop in affinity” value was about 2 fold.

B3: 7G6-HCzu23-LCzu18 (antibody, human IgG1, kappa)
heavy: not shown
light: B2 light with V2I
notes: humanized, human IgG1 kappa
In the case of B3, in assay [2], the dissociation constant Kd came to 0.22 nM, the dissociation rate constant (koff) is 0.00037 s⁻¹ and the kon was 1.71e+06 M⁻¹ s⁻¹. In assay [3], the Kd was 0.182 nM, the koff was found to be 0.00039 s⁻¹ and the kon stood at 2.14e+06 M⁻¹ s⁻¹. In assay [4], the “fold drop in affinity” value was about 2 fold.

B4: 7G6-HCzu25-LCzu18 (antibody, human IgG1, kappa)
heavy: not shown
light: B2 light with V2I
notes: humanized, human IgG1 kappa; also called 7G6-zuHC25-zuLC18; 7G6-HCzu25-LCzu18-HEK
In the case of B4, the Kd is 0.13 nM in assay [2]; 0.0881 nM in [3]; 0.0657 nM and 0.0659 nM and 0.0645 nM in assay [10]. Further, the koff in [2] was 0.00014 s⁻¹; in assay [3], 0.000307 s⁻¹; in assay [10] it was 0.000126 s⁻¹ (2×) and 0.000123 s⁻¹. In addition, the kon was 1.11e+06 M⁻¹ s⁻¹ in assay [2]; 3.5e+06 M⁻¹ s⁻¹ in [3]; 1.92e+06 M⁻¹ s⁻¹ and 1.91e+06 M⁻¹ s⁻¹ in assay [10]. Besides, the “fold preference in binding (average signal intensities)” value in [5] was found to be 100 fold; in assay [6], 65 fold; in [7] it was 77 fold; in assay [8], 119 fold. Further, the “fold drop in affinity” value in assay [9] was about 1.4 fold.

B5: 7G6-HCzu5-LCzu9 (antibody, human IgG1, kappa, V domains shown)
VH: QVQLVQSGAEVKKPGASVKVSCKASGYTFTTYWITWVRQAPGQGLEWMGDIYPGSSISNYNEKFKSRVTMTVDTSTSTAYMELSSLRSEDTAVYYCAREDGYDAWFAYWGQGTLVTVSS
VL: DVVMTQSPLSLPVTLGQPASISCRSSQSIVHSNGNTYLNWFQQRPGQSPRRLISKVSNRFSGVPDRFSGSGSGTDFTLKISRVEAEDVGVYYCFQGSHVPFTFGQGTKLEIKR
notes: humanized, human IgG1 kappa; also called 7G6-LCzu9
Take B5: the binding result in [11] was “no binding”.

B6: 7G6-HCzu8-LCzu21 (antibody, human IgG1, kappa, V domains shown)
VH: B5 VH with N61A, E62Q, K65Q, S66G, V72R, A79V
VL: B5 VL with V30L, N39E, R51L
modifications: N-terminal pyroglutamic acid
notes: humanized, human IgG1 kappa
Take B6: in [3], the equilibrium dissociation constant (Kd) turned out to be 0.138 nM, the koff turned out to be 0.000313 s⁻¹ and the on-rate (kon) came out at 2.28e+06 M⁻¹ s⁻¹. Also, in assay [12], the “fold drop in affinity” value was under 2 fold.

As a reminder, the Kd is the constant that tells how readily two partners part at equilibrium. Broadly, the koff is the first-order rate constant of dissociation. As a reminder, the kon is the rate constant with which the complex forms.
